Assay [1] deals with T1, APP protein (endogenous, full-length) (UniProt P12023 18-770, limits assumed).
T1 construct: P19 is a mouse line by general knowledge; also called endogenous, full-length APP; amyloid precursor protein
Put plainly: GST pull-down from P19 cell extracts, Western blot. (Immunoblotting shows a protein as a band on a membrane.)
Experimental: To test whether mDab1 would bind to the cytoplasmic tail of the APP protein, extracts of P19 cells were incubated with GST fusion proteins and subjected to immunoblot analysis as described above. […] Bound proteins were detected by SDS-PAGE followed by Western blotting.

The target in assay [2] is T2, GST-mDab1 PTB domain fusion protein (mouse, UniProt O75553 29-197 (human entry)).
T2 construct: also called GST-PTB; not shown: glutathione S-transferase encoded by the pGEX-2T vector
T2 sequence: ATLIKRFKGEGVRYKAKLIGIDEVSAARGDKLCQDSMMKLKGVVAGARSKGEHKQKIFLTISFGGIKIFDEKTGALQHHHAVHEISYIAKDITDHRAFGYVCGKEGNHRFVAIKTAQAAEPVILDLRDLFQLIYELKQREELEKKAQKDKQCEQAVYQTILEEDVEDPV
Nature of the assay: cellulose peptide array, radiolabeled GST-PTB.

Assay [3] concerns the target LexA-Src(295R) fusion protein (UniProt P0A7C2 1-202; P00523 1-533). Put plainly: yeast two-hybrid, beta-galactosidase filter assay.
For another assay, the target named is T3, activated Src (Src527F) (UniProt P00523 1-533).
T3 construct: the old residue (Tyr) is from general knowledge
Nature of the assay: co-expression with Src527F in 293T cells, immunoprecipitation and immunoblot.

Non-standard residues stand in square brackets, D forms with d. No end group written: not given here. pY = N[C@@H](Cc1ccc(OP(=O)(O)O)cc1)C(=O)O

B1: GST-mDab1 56E PTB domain fusion protein (other)
chain: ATLIKRFKGEGVRYKAKLIGIDEVSAAEGDKLCQDSMMKLKGVVAGARSKGEHKQKIFLTISFGGIKIFDEKTGALQHHHAVHEISYIAKDITDHRAFGYVCGKEGNHRFVAIKTAQAAEPVILDLRDLFQLIYELKQREELEKKAQKDKQCEQAVYQTILEEDVEDPV
notes: also called mDab56E-GST; mutant mDab1 PTB; not shown: GST of pGEX-2T and its linker
B1: the binding result in assay [1] is “no binding”.

B2: TrkA peptide with the motif Ile Ile Glu Asn Pro Gln Tyr, not phosphorylated (peptide)
peptide: IIENPQY
notes: 15 to 17 residue peptide on a cellulose array; only the motif is printed; also called NGF receptor (TrkA) peptide
With B2, the binding result in assay [2] was “no binding”.

B3: TrkA peptide with the motif Ile Ile Glu Asn Pro Gln Tyr, phosphorylated (peptide)
peptide: IIENPQ[pY]
modifications: also: on cellulose array
notes: NPXpY peptide on a cellulose array
On to B3, for which the binding result in assay [2] is “no binding”.

B4: mDab1 clone B3 fused to the VP16 transactivation domain (other)
chain: HHHAVHEISYIAKDITDHRAFGYVCGKEGNHRFVAIKTAQAAEPVILDLRDLFQLIYELKQREELEKKAQKDKQCEQAVYQTILEEDVEDPVYQYIVFEAGHEPIRDPETEENIYQVPTSQKKEGVYDVPKSQPVSAVTQLELFGDMSTPPDITSPPTPATPGDAFLPS
As for B4, in assay [3], the binding result is recorded as “no binding”.

B5: mDab198/200F (mutant mDab555 with Phe in place of Tyr 198 and Tyr 200) (other)
chain: MSTETELQVAVKTSAKKDSRKKGQDRSEATLIKRFKGEGVRYKAKLIGIDEVSAARGDKLCQDSMMKLKGVVAGARSKGEHKQKIFLTISFGGIKIFDEKTGALQHHHAVHEISYIAKDITDHRAFGYVCGKEGNHRFVAIKTAQAAEPVILDLRDLFQLIYELKQREELEKKAQKDKQCEQAVYQTILEEDVEDPVFQFIVFEAGHEPIRDPETEENIYQVPTSQKKEGVYDVPKSQPVSAVTQLELFGDMSTPPDITSPPTPATPGDAFLPSSSQTLPGSADVFGSMSFGTAAVPSGYVAMGAVLPSFWGQQPLVQQQIAMGAQPPVAQVIPGAQPIAWGQPGLFPATQQAWPTVAGQFPPAAFMPTQTVMPLAAAMFQGPLTPLATVPGTNDSARSSPQSDKPRQKMGKESFKDFQMVQPPPVPSRKPDQPSLTCTSEAFSSYFNKVGVAQDTDDCDDFDISQLNLTPVTSTTPSTNSPPTPAPRQSSPSKSSASHVSDPTADDIFEEGFESPSKSEEQEAPDGSQASSTSDPFGEPSGEPSGDNISPQDGS
notes: Co-expressed with Src527F in 293T cells
Regarding B5, in the assay with activated Src (Src527F), the “fold reduction of the in vivo association against mDab555” value was about 2 fold.

The record behind these values is patent US7250505 (FRED HUTCHINSON CANCER RESEARCH CENTER, dated 2007).
